# Measurements taken from patent US20250049896A1 (Regeneron, published 2025).
# What was measured:
# [1] = molecular target: T1, hmm.hTfRC (REGN2431), human transferrin receptor extracellular domain with hexahistidine-myc-myc tag (human, UniProt P02786 89-760); test: SPR (Biacore), mAb captured on anti-human Fc, 100 nM hTFR-mmh, 25 C
# T1 construct: Monomeric recombinant protein, 79210 g/mol; also called hTFR-mmh; His-myc-myc-hTFRC ecto
# Protocol: (§1) Biacore binding kinetics assays were conducted for the interaction of 32 anti-human TfR IgG1 monoclonal antibodies from CHO supernatants with TfR reagents at 25° C.
# (§2) Equilibrium dissociation constants (KD) for the interaction of anti-TfR monoclonal antibodies with human and fascicularis monkey TfR ecto domain recombinant proteins were determined using a real-time surface plasmon resonance (SPR) based Biacore S200 biosensor. All binding studies were performed in 10 mM HEPES, 150 mM NaCl, 3 mM EDTA, and 0.05% v/v surfactant Tween-20, pH 7.4 (HBS-EP) running buffer at […]. The Biacore CM5 sensor surface was first derivatized by amine coupling with a monoclonal mouse anti-human Fc antibody (REGN2567) followed by a step to capture anti-TfR monoclonal antibodies in CHO conditioned media. […] The dissociation of TfR bound to anti-TfR monoclonal antibodies was monitored for 3 minutes in HBS-EP running buffer. At the end of each cycle, the anti-TfR monoclonal antibodies capture surface was regenerated using a 12-sec injection of 20 mM H₃PO₄. The association rate (ka) and dissociation rate (kd) were determined by fitting the real-time binding sensorgrams to a 1:1 binding model with mass transport limitation using Scrubber 2.0 c software. The dissociation equilibrium constant (KD) and dissociative half-life (t½) were calculated from the kinetic rate constants as: […]
# [2] = molecular target: T2, mf TFRC ecto-mmh (REGN2054), monomeric monkey (cyno) Tfrc ectodomain with C-terminal myc-myc-hexahistidine tag (monkey (cyno), Macaca fascicularis, UniProt H9EXL1 89-760); test: SPR (Biacore), mAb captured on anti-human Fc, 100 nM mfTfR-mmh, 25 C
# T2 construct: range 89-760; also called mfTfR-mmh; mfTFR-mmh
# Protocol: as §1, §2
# T1 sequence (P02786 other isoform, or with tags, fused parts or gaps): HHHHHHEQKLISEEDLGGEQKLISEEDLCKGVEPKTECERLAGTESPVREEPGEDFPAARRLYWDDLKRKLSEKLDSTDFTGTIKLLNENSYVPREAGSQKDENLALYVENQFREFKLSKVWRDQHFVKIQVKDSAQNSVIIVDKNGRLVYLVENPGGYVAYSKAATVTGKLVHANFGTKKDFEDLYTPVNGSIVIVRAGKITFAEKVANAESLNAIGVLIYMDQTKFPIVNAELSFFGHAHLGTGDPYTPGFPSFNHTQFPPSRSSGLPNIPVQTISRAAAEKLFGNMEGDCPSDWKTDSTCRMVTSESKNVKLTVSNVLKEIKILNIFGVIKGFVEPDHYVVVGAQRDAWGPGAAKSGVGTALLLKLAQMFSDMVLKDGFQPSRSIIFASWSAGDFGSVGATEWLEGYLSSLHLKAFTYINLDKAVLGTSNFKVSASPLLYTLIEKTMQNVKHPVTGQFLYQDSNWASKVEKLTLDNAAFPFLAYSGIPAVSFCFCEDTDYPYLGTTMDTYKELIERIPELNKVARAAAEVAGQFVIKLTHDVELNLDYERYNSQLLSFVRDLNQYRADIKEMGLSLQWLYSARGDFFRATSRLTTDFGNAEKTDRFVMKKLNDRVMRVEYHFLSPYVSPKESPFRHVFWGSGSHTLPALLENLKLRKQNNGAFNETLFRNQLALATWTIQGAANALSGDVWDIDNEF
# T2 sequence (chain, as listed by the source): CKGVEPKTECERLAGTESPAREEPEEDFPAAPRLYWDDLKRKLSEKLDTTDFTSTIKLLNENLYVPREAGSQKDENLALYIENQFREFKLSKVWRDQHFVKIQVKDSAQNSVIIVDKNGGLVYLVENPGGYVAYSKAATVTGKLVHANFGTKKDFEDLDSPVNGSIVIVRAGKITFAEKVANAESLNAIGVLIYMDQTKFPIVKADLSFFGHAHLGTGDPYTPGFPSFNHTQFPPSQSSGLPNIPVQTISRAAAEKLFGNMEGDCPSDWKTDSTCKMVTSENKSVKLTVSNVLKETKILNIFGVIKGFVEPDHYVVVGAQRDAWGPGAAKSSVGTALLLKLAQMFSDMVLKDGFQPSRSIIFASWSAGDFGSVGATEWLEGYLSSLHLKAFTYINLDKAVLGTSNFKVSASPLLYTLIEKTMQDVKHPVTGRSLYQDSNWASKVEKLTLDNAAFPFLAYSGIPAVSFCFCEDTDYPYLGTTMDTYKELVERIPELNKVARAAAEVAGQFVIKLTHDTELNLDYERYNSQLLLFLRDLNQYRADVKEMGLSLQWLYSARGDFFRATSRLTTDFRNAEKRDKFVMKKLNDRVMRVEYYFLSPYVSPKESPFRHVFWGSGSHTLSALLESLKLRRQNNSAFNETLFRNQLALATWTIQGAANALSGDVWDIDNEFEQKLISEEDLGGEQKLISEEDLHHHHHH
Binder,100 nM Ag Bound (RU) [1],Kd [1],koff [1],kon [1],t½ [1],100 nM Ag Bound (RU) [2],Kd [2],koff [2],kon [2],t½ [2]
"69323 (antibody, human IgG1, kappa, V domains shown, Tested as bivalent human IgG1 from CHO primary supernatant) VH: EVQLVESGGGLVQPGRSLRLSCAASGFTFDDYAMHWVRQAPGKGLEWVSGISWNSGYIGYADSVKGRFTISRDNAENSLHLQMNSLRAEDTALYYCARGGSTLVRGVKGGYYGMDVWGQGTTVTVSS VL: not shown",465 RU,2.45 nM,0.00018 s⁻¹,73400 M⁻¹ s⁻¹,64.1 min,24 RU,19 nM,0.0106 s⁻¹,558000 M⁻¹ s⁻¹,1.1 min
"12833B (antibody, human IgG1, kappa, V domains shown, Tested as bivalent human IgG1 from CHO primary supernatant) VH: QVQLVESGGGVVQPGRSLRLSCAASGFTFSSFGMHWVRQAPGKGLEWVIFISYDGSDKYYADSVKGRFAISRDSSKNTLYLQMNSLRAEDTAVYYCAKENGILTDSYGMDVWGQGTTVTVSS VL: not shown",409 RU,3.51 nM,0.000252 s⁻¹,72000 M⁻¹ s⁻¹,45.9 min,346 RU,7.02 nM,0.000486 s⁻¹,69200 M⁻¹ s⁻¹,23.8 min
"69331 (antibody, human IgG1, kappa, V domains shown, Tested as bivalent human IgG1 from CHO primary supernatant) VH: QVQLVESGGGVVQPGRSLRLSCIASGFTFSVYGIHWVRQAPGKGLEWMAVISHDGNIKHYADSVKGRFTISRDNSKNTLYLQINSLRTEDTAVYYCAKDTWNSLDTFDIWGQGTMVTVSS VL: DIQLTQSPSSLSASVGDRVTITCWASQGISSYLAWYQQKPGKAPKLLIYAASTLQSGVPSRFSGSGSGTEFTLTISSLQPEDFATYYCQQLNSYPLTFGGGTKVEIKR",87 RU,41 nM,0.00466 s⁻¹,114000 M⁻¹ s⁻¹,2.5 min,26 RU,20.5 nM,0.01 s⁻¹,489000 M⁻¹ s⁻¹,1.2 min
"69263 (antibody, human IgG1, kappa, V domains shown, Tested as bivalent human IgG1 from CHO primary supernatant) VH: EVQLVESGGGLVQPGRSLRLSCAVSGFTFDDYAMHWVRQAPGKGLEWVSGISWNSGTRGYADSVKGRFTISRDNAKNSLYLQMNSLRGEDTALYYCVKDITISPNYYGMDVWGQGTTVTVSS VL: DIQMTQSPSSLSASVGDRVTITCRASQDISHYSAWYQQKPGKLPNLLIYAASTLQSGVPSRFSGSGSGTDFSLTTSSLQPEDVATYYCQKYNSVPLTFGGGTKVEIKR",150 RU,6.5 nM,0.00115 s⁻¹,177000 M⁻¹ s⁻¹,10 min,77 RU,19.2 nM,0.00378 s⁻¹,197000 M⁻¹ s⁻¹,3.1 min
"69348 (antibody, human IgG1, kappa, V domains shown, Tested as bivalent human IgG1 from CHO primary supernatant) VH: QVQLVESGGGVVQPGRSLRLSCAASGFTFTTYGMHWVRQAPGKGLEWVAVIWYDGSNKYYGDSVKGRFTISRDNSKNTLYLQMNSLRVDDTAVYYCTRTHGYTRSSDGFDYWGQGTLVTVSS VL: DIQMTQSPSSLSASVGDRVTITCRASQSIRNVLGWFQQKPGKAPQRLIYAASSLQSGVPSRFSGSGSGTEFTLTISSLQPEDFATYYCLQHNFYPLTFGGGTKVEIKR",680 RU,1.62 nM,0.000172 s⁻¹,106000 M⁻¹ s⁻¹,67.2 min,433 RU,4.8 nM,0.000461 s⁻¹,96000 M⁻¹ s⁻¹,25.1 min
"12816B (antibody, human IgG1, kappa, V domains shown, Tested as bivalent human IgG1 from CHO primary supernatant) VH: QVQLVESGGGLVKPGGSLRLSCAASGFTFSDYYMNWIRQAPGKGLEWVSYISSSGTTIYYADSVKGRFTISRDNAKKSLYLEMNSLRAEDTAVYYCAREGYGNDYYYYGIDVWGQGTTVTVSS VL: not shown",357 RU,5.8 nM,0.000336 s⁻¹,57900 M⁻¹ s⁻¹,34.3 min,315 RU,7.44 nM,0.000485 s⁻¹,65200 M⁻¹ s⁻¹,23.8 min

# Stronger by Kd [1], values ahead:
100 nM Ag Bound (RU) [1],Kd [1],koff [1],kon [1],t½ [1],100 nM Ag Bound (RU) [2],Kd [2],koff [2],kon [2],t½ [2],Binder
462 RU,1.16 nM,8.08e-05 s⁻¹,70000 M⁻¹ s⁻¹,143 min,331 RU,5.9 nM,0.000403 s⁻¹,68300 M⁻¹ s⁻¹,28.7 min,"69261 (antibody, human IgG1, kappa, V domains shown, Tested as bivalent human IgG1 from CHO primary supernatant) VH: QVQLVESGGGLVKPGGSLRLSCAASGFTFSVYYMNWIRQAPGKGLEWVSYISSSGSTIYYADSVKGRFTISRDNAKNSLYLQMNSLRAEDTAVYYCGREGYSGTYSYYGMDVWGQGTTVTVSS VL: not shown"
964 RU,0.894 nM,0.000107 s⁻¹,119000 M⁻¹ s⁻¹,108 min,626 RU,5.78 nM,0.000454 s⁻¹,78500 M⁻¹ s⁻¹,25.5 min,"12808B (antibody, human IgG1, kappa, V domains shown, Tested as bivalent human IgG1 from CHO primary supernatant) VH: QLQLQESGPGLVKPSETLSLTCTVSGESISSNTYYWGWIRQPPGKGLEWIGSIDYSGTTNYNPSLKSRVTISVDTSRNHFSLRLRSVTAADTAVYYCAREWGNYGYYYGMDVWGQGTTVTVSS VL: DIQMTQSPSSLSASVGDRVTINCRASQGIRNDLGWYQQKPGKAPKRLIYAASSLQSGVPLRFSGSGSGTEFTLTINNLQPEDFATYYCLSHNSYPWTFGQGTKVEIKR"
699 RU,0.851 nM,6.62e-05 s⁻¹,77600 M⁻¹ s⁻¹,174 min,651 RU,1.88 nM,0.000162 s⁻¹,86400 M⁻¹ s⁻¹,71.2 min,"12799B (antibody, human IgG1, kappa, V domains shown, Tested as bivalent human IgG1 from CHO primary supernatant; also called H1H12799B; REGN17508) VH: QITLKESGPTLVKPTQTLTLTCTFSGFSLSTSGVGVVWIRQPPGKALEWLALIYWNDHKRYSPSLGSRLTITKDTSKNQVVLTMTNMDPVDTATYYCAHYSGSYSYYYYGLDVWGQGTTVTVSS VL: DIQMTQSPSSVSASVGDRVTITCRASQGIASWLAWYQQKPGKAPELLIYAASSLQGGVPSRFSGSGSGTDFTLTISSLQPEDFAIYYCQQANYFPWTFGQGTKVEIKR"
904 RU,0.836 nM,0.000115 s⁻¹,138000 M⁻¹ s⁻¹,100 min,26 RU,14.4 nM,0.00996 s⁻¹,691000 M⁻¹ s⁻¹,1.2 min,"31874B (antibody, human IgG1, kappa, V domains shown, Tested as bivalent human IgG1 from CHO primary supernatant; also called H1H31874B; REGN17517) VH: EVQLVESGGGLVQPGGSLRLSCAASGFAFSSYAMTWVRQAPGKGLEWVSVISGTGGSTYYADSVKGRFTISRDNSKNTLYLQMNSLRAEDTAVYYCAKGGAARRMEYFQYWGQGTLVTVSS VL: DIQMTQSPSSLSASVGDRVTITCRASQGISNYLAWYQQKPGKVPNLLIYAASTLQSGVPSRFSGSGSGTDFTLTISSLQPEDVATYYCQKYNSAPLTFGGGTKVEIKR"
598 RU,0.513 nM,4.19e-05 s⁻¹,81900 M⁻¹ s⁻¹,276 min,159 RU,10.2 nM,0.000653 s⁻¹,64000 M⁻¹ s⁻¹,17.7 min,"12801B (antibody, human IgG1, kappa, V domains shown, Tested as bivalent human IgG1 from CHO primary supernatant) VH: EVQLLESGGALVQPGGSLRLSCAASGFTFTSYAMHWVRQAPGKGLEWVSSIRGSGGGTYSADSVKGRFTISRDNSRDTLYLQMNSVRAEDTAVYYCARSHDYGAFDFFDYWGQGTLVTVSS VL: DIQMTQSPSSLSASVGDRVTITCRASQGIRTDLGWYQQKPGKAPKRLIYAASSLQSGVPSRFSGSGSGTEFTLTISSLRPEDFATFYCLQYNSYPLTFGGGTKVEIKR"
999 RU,0.429 nM,6.23e-05 s⁻¹,144000 M⁻¹ s⁻¹,185 min,634 RU,8.11 nM,0.000723 s⁻¹,89200 M⁻¹ s⁻¹,16 min,"69340 (antibody, human IgG1, kappa, V domains shown, Tested as bivalent human IgG1 from CHO primary supernatant) VH: EVQLVESGGGLVQPGRSLRLSCAASGFTFDDKAMHWVRQVPGKGLEWISGISWNSGTIGYADSVKGRFIISRDNAKNSLYLQMNSLRAEDTALYYCAKDGDTSGWYWYGLDVWGQGTTVTVSS VL: EIVLTQSPATLSLSPGERATLSCRASQSVSSYLAWYQQKPGQAPRLLIHDVSNRATGIPARFSGSGSGTDFTLTISSLEPEDFVVYYCQQRSDWPITFGQGTRLEIKR"
1150 RU,0.387 nM,6.33e-05 s⁻¹,163000 M⁻¹ s⁻¹,183 min,508 RU,16.3 nM,0.00129 s⁻¹,79000 M⁻¹ s⁻¹,9 min,"12798B (antibody, human IgG1, kappa, V domains shown, Tested as bivalent human IgG1 from CHO primary supernatant; also called H1H12798B; REGN17507) VH: EVQLVESGGDLVQPGRSLRLSCAASGFTFDDYAMHWVRQAPGKGLEWVSGISWNSATRVYADSVKGRFTISRDNAKNFLYLQMNSLRSEDTALYHCAKDMDISLGYYGLDVWGQGTTVTVSS VL: not shown"
903 RU,0.236 nM,2.92e-05 s⁻¹,123000 M⁻¹ s⁻¹,395 min,464 RU,7.51 nM,0.000529 s⁻¹,70500 M⁻¹ s⁻¹,21.8 min,"12802B (antibody, human IgG1, kappa, V domains shown, Tested as bivalent human IgG1 from CHO primary supernatant) VH: QVQLVESGGGLVKPGGSLRLSCAASGFTFSDYFMSWIRQAPGKGLEWVSYISSTGSTINYADSVKGRFTISRDNVKNSLYLQMTSLRVEDTAVYYCTRDNWNYEYWGQGTLVTVSS VL: EIVMTQSPATLSVSPGERATLSCRASQSVSINLAWYQQKPGQAPRLLIFVASTRATGIPARFSGSGSGTEFTLTISSLQSEDFATYYCQQYDIWPYTFGQGTKLEIKR"
